IntAct's records for PubMed 15644435

Molecular target: ush_drome ush (UniProt Q9VPQ6)
Sequence (Q9VPQ6 whole entry): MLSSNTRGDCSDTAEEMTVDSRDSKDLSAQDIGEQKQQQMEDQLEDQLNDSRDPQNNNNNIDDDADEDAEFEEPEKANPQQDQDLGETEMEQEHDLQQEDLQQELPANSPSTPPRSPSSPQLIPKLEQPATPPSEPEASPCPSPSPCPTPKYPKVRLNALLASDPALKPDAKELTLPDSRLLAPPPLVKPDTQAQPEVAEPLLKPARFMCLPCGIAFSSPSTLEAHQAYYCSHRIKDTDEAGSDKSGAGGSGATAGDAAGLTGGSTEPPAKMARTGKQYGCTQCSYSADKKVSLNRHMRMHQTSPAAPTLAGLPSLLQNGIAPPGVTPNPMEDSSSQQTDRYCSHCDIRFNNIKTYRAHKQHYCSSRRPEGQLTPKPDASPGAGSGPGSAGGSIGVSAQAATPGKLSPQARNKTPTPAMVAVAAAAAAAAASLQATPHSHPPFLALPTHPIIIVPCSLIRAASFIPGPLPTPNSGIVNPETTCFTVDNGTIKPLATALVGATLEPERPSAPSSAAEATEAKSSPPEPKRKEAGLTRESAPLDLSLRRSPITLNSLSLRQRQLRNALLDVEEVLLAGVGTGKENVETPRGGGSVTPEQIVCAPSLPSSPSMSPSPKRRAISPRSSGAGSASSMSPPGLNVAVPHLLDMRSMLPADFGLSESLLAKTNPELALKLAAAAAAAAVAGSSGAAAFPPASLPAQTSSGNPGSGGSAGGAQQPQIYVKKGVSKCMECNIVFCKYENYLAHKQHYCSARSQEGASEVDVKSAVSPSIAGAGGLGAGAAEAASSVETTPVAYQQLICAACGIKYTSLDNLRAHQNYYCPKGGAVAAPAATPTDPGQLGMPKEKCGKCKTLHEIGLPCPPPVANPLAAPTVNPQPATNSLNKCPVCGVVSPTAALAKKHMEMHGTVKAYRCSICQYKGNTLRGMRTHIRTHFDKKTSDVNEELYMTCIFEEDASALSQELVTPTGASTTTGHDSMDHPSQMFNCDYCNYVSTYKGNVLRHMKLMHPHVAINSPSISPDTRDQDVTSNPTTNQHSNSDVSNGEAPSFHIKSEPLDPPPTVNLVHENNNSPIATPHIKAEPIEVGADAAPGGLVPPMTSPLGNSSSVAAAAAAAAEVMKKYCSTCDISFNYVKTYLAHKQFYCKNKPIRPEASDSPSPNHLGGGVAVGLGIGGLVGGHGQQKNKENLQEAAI

Chain of Erythroid transcription factor (Mus musculus), P17679 R216Q (P17679 whole entry R216Q): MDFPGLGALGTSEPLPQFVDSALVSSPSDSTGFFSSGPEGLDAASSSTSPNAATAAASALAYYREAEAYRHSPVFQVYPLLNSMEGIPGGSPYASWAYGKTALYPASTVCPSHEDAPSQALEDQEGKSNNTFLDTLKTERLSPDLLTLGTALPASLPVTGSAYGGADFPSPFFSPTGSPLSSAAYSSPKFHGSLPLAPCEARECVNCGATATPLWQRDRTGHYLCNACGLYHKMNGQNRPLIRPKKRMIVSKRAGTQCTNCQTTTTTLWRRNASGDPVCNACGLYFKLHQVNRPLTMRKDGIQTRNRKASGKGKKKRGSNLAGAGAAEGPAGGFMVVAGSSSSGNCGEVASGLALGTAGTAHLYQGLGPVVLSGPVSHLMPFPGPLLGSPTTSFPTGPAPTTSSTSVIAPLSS
Chain of Erythroid transcription factor (Mus musculus), P17679 V205M (P17679 whole entry V205M): as the sequence (P17679 whole entry R216Q) above, with V205M, Q216R counted along it
Chain of Erythroid transcription factor (Mus musculus), P17679 D218G (P17679 whole entry D218G): as the sequence (P17679 whole entry R216Q) above, with Q216R, D218G counted along it
Chain of Erythroid transcription factor (Mus musculus), P17679 G208S (P17679 whole entry G208S): as the sequence (P17679 whole entry R216Q) above, with G208S, Q216R counted along it

Question: How did the “effect of a mutation on the interaction” value turn out when “Erythroid transcription factor (Mus musculus), P17679 D218G” was run?
Answer: The value was “with no effect”.

Question: “Erythroid transcription factor (Mus musculus), P17679 G208S” was tested. Which “effect of a mutation on the interaction” value did it give?
Answer: The value was “disrupting interaction strength”.

Question: Which “effect of a mutation on the interaction” value does the source give for “Erythroid transcription factor (Mus musculus), P17679 R216Q” here?
Answer: Its value is “with no effect”.

Question: For “Erythroid transcription factor (Mus musculus), P17679 V205M”, which “effect of a mutation on the interaction” value is on record?
Answer: The value was “disrupting interaction strength”.
